details: Saccharomyces cerevisiae (strain ATCC 204508 / S288c); pH 7.5; 25 °C; GdnHCl; CD; Tris-HCl 20 mM; NaCl 40 mM; reversible: yes (94-100%)

Sequence of Cytochrome c isoform 1 K79L, P00044 (P00044 whole entry K79L, canonical isoform): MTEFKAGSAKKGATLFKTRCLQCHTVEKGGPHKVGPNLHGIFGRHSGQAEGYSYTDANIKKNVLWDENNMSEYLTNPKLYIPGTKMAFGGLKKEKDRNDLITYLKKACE
Sequence of Cytochrome c isoform 1 K79A, P00044 (P00044 whole entry K79A, canonical isoform): as the sequence (P00044 whole entry K79L, canonical isoform) above, with L79A counted along it
Sequence of Cytochrome c isoform 1 K79G, P00044 (P00044 whole entry K79G, canonical isoform): as the sequence (P00044 whole entry K79L, canonical isoform) above, with L79G counted along it
Sequence of Cytochrome c isoform 1 K79I, P00044 (P00044 whole entry K79I, canonical isoform): as the sequence (P00044 whole entry K79L, canonical isoform) above, with L79I counted along it
Sequence of Cytochrome c isoform 1 K79R, P00044 (P00044 whole entry K79R, canonical isoform): as the sequence (P00044 whole entry K79L, canonical isoform) above, with L79R counted along it
Sequence of Cytochrome c isoform 1 K79V, P00044 (P00044 whole entry K79V, canonical isoform): as the sequence (P00044 whole entry K79L, canonical isoform) above, with L79V counted along it
Sequence of Cytochrome c isoform 1 wild type, P00044 (P00044 whole entry, canonical isoform): as the sequence (P00044 whole entry K79L, canonical isoform) above, with L79K counted along it

**Q.** For “Cytochrome c isoform 1 wild type, P00044”, which denaturant m value is on record?
**A.** 4.87 kcal/mol/M

**Q.** And the “denaturant midpoint (higher = more stable)” value (“denaturant midpoint” below)?
**A.** 1.16 M

**Q.** What about the unfolding free energy of the same substance?
**A.** 5.66 kcal/mol

same assay, conditions: Saccharomyces cerevisiae (strain ATCC 204508 / S288c); pH 7.5; 25 °C; GdnHCl; CD; Tris-HCl 20 mM; NaCl 40 mM; reversible: yes (94-100%); structure 1YCC

**Q.** With Cytochrome c isoform 1 K79A, P00044 as the substance, how does the “ddG of mutation (higher = less stable)” value read?
**A.** 0.45 kcal/mol

**Q.** What about the denaturant m value of the same substance?
**A.** 4.44 kcal/mol/M

**Q.** And the “denaturant midpoint” value?
**A.** 1.17 M

**Q.** What about the unfolding free energy of the same substance?
**A.** 5.21 kcal/mol

**Q.** What does the source list for Cytochrome c isoform 1 K79G, P00044?
**A.** ddG of mutation (higher = less stable): 0.74 kcal/mol; denaturant m value: 4.58 kcal/mol/M; denaturant midpoint (higher = more stable): 1.07 M; unfolding free energy: 4.92 kcal/mol

**Q.** What does the source list for Cytochrome c isoform 1 K79I, P00044?
**A.** ddG of mutation (higher = less stable): 1.19 kcal/mol; denaturant m value: 4.29 kcal/mol/M; denaturant midpoint (higher = more stable): 1.04 M; unfolding free energy: 4.47 kcal/mol

**Q.** For Cytochrome c isoform 1 K79L, P00044, which “ddG of mutation (higher = less stable)” value is on record?
**A.** 0.03 kcal/mol

**Q.** And the denaturant m value?
**A.** 4.98 kcal/mol/M

**Q.** And the “denaturant midpoint” value?
**A.** 1.13 M

**Q.** What about the unfolding free energy of the same substance?
**A.** 5.63 kcal/mol

**Q.** With Cytochrome c isoform 1 K79R, P00044 as the substance, how does the “ddG of mutation (higher = less stable)” value read?
**A.** 0.03 kcal/mol

**Q.** And the denaturant m value?
**A.** 5.25 kcal/mol/M

**Q.** What about the “denaturant midpoint” value of the same substance?
**A.** 1.07 M

**Q.** And the unfolding free energy?
**A.** 5.63 kcal/mol

**Q.** What does the source list for Cytochrome c isoform 1 K79V, P00044?
**A.** ddG of mutation (higher = less stable): 1.38 kcal/mol; denaturant m value: 4.01 kcal/mol/M; denaturant midpoint (higher = more stable): 1.07 M; unfolding free energy: 4.28 kcal/mol

Source: FireProtDB (doi:10.1021/bi00009a035)
